{"source": "patent US20260151504A1", "about": "“SYNTHETIC CELLS COMPRISING TNF-RELATED APOPTOSIS-INDUCING LIGAND (TRAIL) AND METHODS OF USING THE SAME” (Slingshot Biosciences, Inc., priority 2023, published 2026)", "target": "TRAIL receptors DR4 and/or DR5", "experiment": "cell-based or functional assay", "data": [{"substance": "Biotinylated Fc-TRAIL: active fragment of the human TRAIL protein comprising SEQ ID NO: 2 with a mouse IgG2a-Fc Tag at the N-terminus (ACROBiosystems TRLH52591MG), biotinylated with Oyo-link single biotin (from UniProt P50591 114-281) (Fc fusion)", "values": [{"measurement": "Early Stage Apoptotic (7-AAD-/Annexin V+), Jeko-1, 24 Hrs.; TRAIL Magnetic Beads", "value": 25.8, "unit": "%"}, {"measurement": "Early Stage Apoptotic (7-AAD-/Annexin V+), Jeko-1, 24 Hrs.; TRAIL Porous Hydrogels", "value": 52.1, "unit": "%"}, {"measurement": "Early Stage Apoptotic (7-AAD-/Annexin V+), Jeko-1, 24 Hrs.; TRAIL Smooth Hydrogels", "value": 44.8, "unit": "%"}, {"measurement": "Early Stage Apoptotic (7-AAD-/Annexin V+), Jeko-1, 24 Hrs.; TRAIL encapsulated PLGA", "value": 3.08, "unit": "%"}, {"measurement": "Early Stage Apoptotic (7-AAD-/Annexin V+), Jeko-1, 48 Hrs.; TRAIL Magnetic Beads", "value": 6.55, "unit": "%"}, {"measurement": "Early Stage Apoptotic (7-AAD-/Annexin V+), Jeko-1, 48 Hrs.; TRAIL Porous Hydrogels", "value": 5.77, "unit": "%"}, {"measurement": "Early Stage Apoptotic (7-AAD-/Annexin V+), Jeko-1, 48 Hrs.; TRAIL Smooth Hydrogels", "value": 11.9, "unit": "%"}, {"measurement": "Early Stage Apoptotic (7-AAD-/Annexin V+), Jeko-1, 48 Hrs.; TRAIL encapsulated PLGA", "value": 3.07, "unit": "%"}, {"measurement": "Early Stage Apoptotic (7-AAD-/Annexin V+), Jurkat, 24 Hrs.; TRAIL Magnetic Beads", "value": 22.3, "unit": "%"}, {"measurement": "Early Stage Apoptotic (7-AAD-/Annexin V+), Jurkat, 24 Hrs.; TRAIL Porous Hydrogels", "value": 41.9, "unit": "%"}, {"measurement": "Early Stage Apoptotic (7-AAD-/Annexin V+), Jurkat, 24 Hrs.; TRAIL Smooth Hydrogels", "value": 39, "unit": "%"}, {"measurement": "Early Stage Apoptotic (7-AAD-/Annexin V+), Jurkat, 24 Hrs.; TRAIL encapsulated PLGA", "value": 7.86, "unit": "%"}, {"measurement": "Early Stage Apoptotic (7-AAD-/Annexin V+), Jurkat, 48 Hrs.; TRAIL Magnetic Beads", "value": 13.8, "unit": "%"}, {"measurement": "Early Stage Apoptotic (7-AAD-/Annexin V+), Jurkat, 48 Hrs.; TRAIL Porous Hydrogels", "value": 22.5, "unit": "%"}, {"measurement": "Early Stage Apoptotic (7-AAD-/Annexin V+), Jurkat, 48 Hrs.; TRAIL Smooth Hydrogels", "value": 18.3, "unit": "%"}, {"measurement": "Early Stage Apoptotic (7-AAD-/Annexin V+), Jurkat, 48 Hrs.; TRAIL encapsulated PLGA", "value": 3.1, "unit": "%"}, {"measurement": "Late Stage Apoptotic (7-AAD+/Annexin V+), Jeko-1, 24 Hrs.; TRAIL Magnetic Beads", "value": 20.1, "unit": "%"}, {"measurement": "Late Stage Apoptotic (7-AAD+/Annexin V+), Jeko-1, 24 Hrs.; TRAIL Porous Hydrogels", "value": 33.9, "unit": "%"}, {"measurement": "Late Stage Apoptotic (7-AAD+/Annexin V+), Jeko-1, 24 Hrs.; TRAIL Smooth Hydrogels", "value": 16.9, "unit": "%"}, {"measurement": "Late Stage Apoptotic (7-AAD+/Annexin V+), Jeko-1, 24 Hrs.; TRAIL encapsulated PLGA", "value": 5.34, "unit": "%"}, {"measurement": "Late Stage Apoptotic (7-AAD+/Annexin V+), Jeko-1, 48 Hrs.; TRAIL Magnetic Beads", "value": 44.1, "unit": "%"}, {"measurement": "Late Stage Apoptotic (7-AAD+/Annexin V+), Jeko-1, 48 Hrs.; TRAIL Porous Hydrogels", "value": 87.5, "unit": "%"}, {"measurement": "Late Stage Apoptotic (7-AAD+/Annexin V+), Jeko-1, 48 Hrs.; TRAIL Smooth Hydrogels", "value": 43.1, "unit": "%"}, {"measurement": "Late Stage Apoptotic (7-AAD+/Annexin V+), Jeko-1, 48 Hrs.; TRAIL encapsulated PLGA", "value": 13.9, "unit": "%"}, {"measurement": "Late Stage Apoptotic (7-AAD+/Annexin V+), Jurkat, 24 Hrs.; TRAIL Magnetic Beads", "value": 14.9, "unit": "%"}, {"measurement": "Late Stage Apoptotic (7-AAD+/Annexin V+), Jurkat, 24 Hrs.; TRAIL Porous Hydrogels", "value": 18.8, "unit": "%"}, {"measurement": "Late Stage Apoptotic (7-AAD+/Annexin V+), Jurkat, 24 Hrs.; TRAIL Smooth Hydrogels", "value": 18, "unit": "%"}, {"measurement": "Late Stage Apoptotic (7-AAD+/Annexin V+), Jurkat, 24 Hrs.; TRAIL encapsulated PLGA", "value": 3.17, "unit": "%"}, {"measurement": "Late Stage Apoptotic (7-AAD+/Annexin V+), Jurkat, 48 Hrs.; TRAIL Magnetic Beads", "value": 32.9, "unit": "%"}, {"measurement": "Late Stage Apoptotic (7-AAD+/Annexin V+), Jurkat, 48 Hrs.; TRAIL Porous Hydrogels", "value": 63.5, "unit": "%"}, {"measurement": "Late Stage Apoptotic (7-AAD+/Annexin V+), Jurkat, 48 Hrs.; TRAIL Smooth Hydrogels", "value": 43, "unit": "%"}, {"measurement": "Late Stage Apoptotic (7-AAD+/Annexin V+), Jurkat, 48 Hrs.; TRAIL encapsulated PLGA", "value": 5.7, "unit": "%"}, {"measurement": "Live Cells (7-AAD-/Annexin V-), Jeko-1, 24 Hrs.; TRAIL Magnetic Beads", "value": 54, "unit": "%"}, {"measurement": "Live Cells (7-AAD-/Annexin V-), Jeko-1, 24 Hrs.; TRAIL Porous Hydrogels", "value": 13.6, "unit": "%"}, {"measurement": "Live Cells (7-AAD-/Annexin V-), Jeko-1, 24 Hrs.; TRAIL Smooth Hydrogels", "value": 38.2, "unit": "%"}, {"measurement": "Live Cells (7-AAD-/Annexin V-), Jeko-1, 24 Hrs.; TRAIL encapsulated PLGA", "value": 91.5, "unit": "%"}, {"measurement": "Live Cells (7-AAD-/Annexin V-), Jeko-1, 48 Hrs.; TRAIL Magnetic Beads", "value": 48.2, "unit": "%"}, {"measurement": "Live Cells (7-AAD-/Annexin V-), Jeko-1, 48 Hrs.; TRAIL Porous Hydrogels", "value": 5.18, "unit": "%"}, {"measurement": "Live Cells (7-AAD-/Annexin V-), Jeko-1, 48 Hrs.; TRAIL Smooth Hydrogels", "value": 44.8, "unit": "%"}, {"measurement": "Live Cells (7-AAD-/Annexin V-), Jeko-1, 48 Hrs.; TRAIL encapsulated PLGA", "value": 82.4, "unit": "%"}, {"measurement": "Live Cells (7-AAD-/Annexin V-), Jurkat, 24 Hrs.; TRAIL Magnetic Beads", "value": 62.5, "unit": "%"}, {"measurement": "Live Cells (7-AAD-/Annexin V-), Jurkat, 24 Hrs.; TRAIL Porous Hydrogels", "value": 39.1, "unit": "%"}, {"measurement": "Live Cells (7-AAD-/Annexin V-), Jurkat, 24 Hrs.; TRAIL Smooth Hydrogels", "value": 42.7, "unit": "%"}, {"measurement": "Live Cells (7-AAD-/Annexin V-), Jurkat, 24 Hrs.; TRAIL encapsulated PLGA", "value": 88.6, "unit": "%"}, {"measurement": "Live Cells (7-AAD-/Annexin V-), Jurkat, 48 Hrs.; TRAIL Magnetic Beads", "value": 49.7, "unit": "%"}, {"measurement": "Live Cells (7-AAD-/Annexin V-), Jurkat, 48 Hrs.; TRAIL Porous Hydrogels", "value": 12, "unit": "%"}, {"measurement": "Live Cells (7-AAD-/Annexin V-), Jurkat, 48 Hrs.; TRAIL Smooth Hydrogels", "value": 36, "unit": "%"}, {"measurement": "Live Cells (7-AAD-/Annexin V-), Jurkat, 48 Hrs.; TRAIL encapsulated PLGA", "value": 85.6, "unit": "%"}, {"measurement": "Necrotic (7-AAD+/Annexin V-), Jeko-1, 24 Hrs.; TRAIL Magnetic Beads", "value": 0.12, "unit": "%"}, {"measurement": "Necrotic (7-AAD+/Annexin V-), Jeko-1, 24 Hrs.; TRAIL Porous Hydrogels", "value": 0.34, "unit": "%"}, {"measurement": "Necrotic (7-AAD+/Annexin V-), Jeko-1, 24 Hrs.; TRAIL Smooth Hydrogels", "value": 0.1, "unit": "%"}, {"measurement": "Necrotic (7-AAD+/Annexin V-), Jeko-1, 24 Hrs.; TRAIL encapsulated PLGA", "value": 0.088, "unit": "%"}, {"measurement": "Necrotic (7-AAD+/Annexin V-), Jeko-1, 48 Hrs.; TRAIL Magnetic Beads", "value": 1.08, "unit": "%"}, {"measurement": "Necrotic (7-AAD+/Annexin V-), Jeko-1, 48 Hrs.; TRAIL Smooth Hydrogels", "value": 0.17, "unit": "%"}, {"measurement": "Necrotic (7-AAD+/Annexin V-), Jeko-1, 48 Hrs.; TRAIL encapsulated PLGA", "value": 0.62, "unit": "%"}, {"measurement": "Necrotic (7-AAD+/Annexin V-), Jurkat, 24 Hrs.; TRAIL Magnetic Beads", "value": 0.28, "unit": "%"}, {"measurement": "Necrotic (7-AAD+/Annexin V-), Jurkat, 24 Hrs.; TRAIL Porous Hydrogels", "value": 0.18, "unit": "%"}, {"measurement": "Necrotic (7-AAD+/Annexin V-), Jurkat, 24 Hrs.; TRAIL Smooth Hydrogels", "value": 0.23, "unit": "%"}, {"measurement": "Necrotic (7-AAD+/Annexin V-), Jurkat, 24 Hrs.; TRAIL encapsulated PLGA", "value": 0.36, "unit": "%"}, {"measurement": "Necrotic (7-AAD+/Annexin V-), Jurkat, 48 Hrs.; TRAIL Magnetic Beads", "value": 3.61, "unit": "%"}, {"measurement": "Necrotic (7-AAD+/Annexin V-), Jurkat, 48 Hrs.; TRAIL Porous Hydrogels", "value": 2.1, "unit": "%"}, {"measurement": "Necrotic (7-AAD+/Annexin V-), Jurkat, 48 Hrs.; TRAIL Smooth Hydrogels", "value": 2.67, "unit": "%"}, {"measurement": "Necrotic (7-AAD+/Annexin V-), Jurkat, 48 Hrs.; TRAIL encapsulated PLGA", "value": 5.61, "unit": "%"}, {"measurement": "percentage of apoptotic cells (Annexin V-positive), Jeko-1, 24 h; TRAIL attached to magnetic beads", "value": 47.1, "unit": "%"}, {"measurement": "percentage of apoptotic cells (Annexin V-positive), Jeko-1, 24 h; TRAIL encapsulated in PLGA microspheres", "value": 9.69, "unit": "%"}, {"measurement": "percentage of apoptotic cells (Annexin V-positive), Jeko-1, 24 h; TRAIL on porous hydrogel microspheres", "value": 86.3, "unit": "%"}, {"measurement": "percentage of apoptotic cells (Annexin V-positive), Jeko-1, 24 h; TRAIL on smooth hydrogel microspheres", "value": 66.3, "unit": "%"}, {"measurement": "percentage of apoptotic cells, Jeko-1, 48 hours; TRAIL attached to magnetic beads", "value": 50.1, "unit": "%"}, {"measurement": "percentage of apoptotic cells, Jeko-1, 48 hours; TRAIL encapsulated in PLGA microspheres", "value": 17.2, "unit": "%"}, {"measurement": "percentage of apoptotic cells, Jeko-1, 48 hours; TRAIL on porous hydrogel microspheres", "value": 93, "unit": "%"}, {"measurement": "percentage of apoptotic cells, Jurkat, 24 h; TRAIL attached to magnetic beads", "value": 39.5, "unit": "%"}, {"measurement": "percentage of apoptotic cells, Jurkat, 24 h; TRAIL encapsulated in PLGA microspheres", "value": 6.45, "unit": "%"}, {"measurement": "percentage of apoptotic cells, Jurkat, 24 h; TRAIL on porous hydrogel microspheres", "value": 78, "unit": "%"}, {"measurement": "percentage of apoptotic cells, Jurkat, 48 h; TRAIL attached to magnetic beads", "value": 57.2, "unit": "%"}, {"measurement": "percentage of apoptotic cells, Jurkat, 48 h; TRAIL encapsulated in PLGA microspheres", "value": 7.87, "unit": "%"}, {"measurement": "percentage of apoptotic cells, Jurkat, 48 h; TRAIL on porous hydrogel microspheres", "value": 81.4, "unit": "%"}, {"measurement": "percentage of early apoptotic cells, Jeko-1, 24 h; TRAIL on porous hydrogel microspheres (text value; Table 4A prints 52.1)", "value": 52.3, "unit": "%"}]}]}
